Test results as given in the Human Domainome abundance scans (Beltran et al. 2025).
± gives the uncertainty stated by the source.

B1: Transitional endoplasmic reticulum ATPase, residues 26 to 106; numbered along this chain, P55072 (parent)
chain: LIVDEAINEDNSVVSLSQPKMDELQLFRGDTVLLKGKKRREAVCIVLSDDTCSDEKIRMNRVVRNNLRVRLGDVISIQPCP

Variants of: B1
Experiment: abundance fitness (aPCA) (normalised: wild type 0, dead -1); higher = more abundant; growth selection in yeast, the domain comes from the species named
Details: Homo sapiens

Variant	abundance fitness
V13W	-0.006 ± 0.053
I77M	-0.097 ± 0.078
Q78N	0.063 ± 0.48
F27W	-0.101 ± 0.06
A6H	0.001 ± 0.084
S53I	-0.204 ± 0.13
R64S	-0.303 ± 0.072
N60H	-0.045 ± 0.19
E5D	0.003 ± 0.11
Q18E	-0.114 ± 0.1
G72F	-0.336 ± 0.22
T51G	-0.024 ± 0.045
V46S	-0.493 ± 0.078
L47A	0.082 ± 0.061
Q78S	-0.031 ± 0.078
S15N	0.08 ± 0.1
I7V	-0.07 ± 0.053
L33I	-0.23 ± 0.14
S15W	-0.091 ± 0.092
Q78M	-0.089 ± 0.077
L1C	-0.117 ± 0.21
L34P	-1.04 ± 0.43
K56W	-0.35 ± 0.055
N8E	0.013 ± 0.061

Variant	abundance fitness
D22Q	0.023 ± 0.092
F27E	0.095 ± 0.081
L71Q	-0.028 ± 0.076
E55L	0.003 ± 0.059
R64T	-0.381 ± 0.096
R70G	0.049 ± 0.056
M21R	-0.888 ± 0.055
K56H	-0.183 ± 0.26
S15G	0.034 ± 0.032
N8H	-0.042 ± 0.095
D22T	-0.037 ± 0.063
V13G	-0.06 ± 0.03
R68C	-0.114 ± 0.14
V32I	-0.016 ± 0.07
D30T	-0.051 ± 0.068
L47N	0.028 ± 0.16
L47W	-0.07 ± 0.073
D10Y	-0.096 ± 0.12
E23P	-1.16 ± 0.32
I77K	-1.01 ± 0.38
N65F	-0.116 ± 0.07
C44D	-0.707 ± 0.14
N11W	-0.26 ± 0.069
I57W	-0.848 ± 0.18

Variant	abundance fitness
V13C	0.056 ± 0.11
V13E	-0.127 ± 0.066
R68T	-0.14 ± 0.09
V69K	-0.514 ± 0.18
G29Q	-0.104 ± 0.049
V32C	0.007 ± 0.094
R40C	-0.071 ± 0.12
S53L	-0.026 ± 0.065
R28K	0.064 ± 0.069
L16K	-0.783 ± 0.15
R40W	-0.059 ± 0.16
K56C	0.027 ± 0.085
L24W	-0.265 ± 0.075
I2A	-0.45 ± 0.12
I75F	-0.859 ± 0.15
I2C	-0.162 ± 0.078
V46Y	-0.911 ± 0.23
G29L	-0.209 ± 0.061
I77T	-0.672 ± 0.17
R39L	-0.054 ± 0.061
P81R	-0.221 ± 0.14
Q78I	-0.023 ± 0.12
V46K	-0.528 ± 0.21
L26T	-0.462 ± 0.12

Variant	abundance fitness
I45E	0.035 ± 0.1
D73V	-0.949 ± 0.093
Q25N	0.038 ± 0.098
N65Y	-0.14 ± 0.14
C52W	-0.728 ± 0.11
I45P	-0.157 ± 0.12
R39K	-0.041 ± 0.11
A42P	-0.825 ± 0.15
N8Y	0.006 ± 0.13
S17Y	-0.806 ± 0.21
R39C	0.034 ± 0.13
T51Q	-0.183 ± 0.12
D49T	-0.01 ± 0.097
V62W	-0.028 ± 0.063
I45D	-0.183 ± 0.084
D22K	-0.063 ± 0.083
N60S	0.085 ± 0.074
D49A	-0.139 ± 0.07
I2W	-0.302 ± 0.11
G36M	-0.309 ± 0.13
E23Y	-0.164 ± 0.27
P81G	-0.451 ± 0.22
R70P	-0.327 ± 0.094
D50F	-0.214 ± 0.13

Variant	abundance fitness
D49S	0.064 ± 0.057
L34V	-0.047 ± 0.07
G36N	0.058 ± 0.13
P19S	0.051 ± 0.059
N65E	-0.02 ± 0.17
P19W	-0.016 ± 0.08
L33F	-0.318 ± 0.17
N66V	-0.104 ± 0.06
G72E	-0.23 ± 0.088
P81F	-0.195 ± 0.16
R68Y	0.274 ± 0.23
N66W	-0.255 ± 0.092
G72Y	-0.256 ± 0.23
L67V	-0.35 ± 0.058
L33H	-0.031 ± 0.11
S12A	0.035 ± 0.048
Q25G	-0.045 ± 0.05
K38W	-0.011 ± 0.14
R68K	0.122 ± 0.12
L71G	0.009 ± 0.053
R28E	0.094 ± 0.056
D73K	-0.309 ± 0.14
E23W	-0.338 ± 0.12
K38R	-0.024 ± 0.077

Variant	abundance fitness
K56I	0.013 ± 0.15
D10V	-0.14 ± 0.041
L67I	-0.057 ± 0.083
K35A	-0.096 ± 0.066
A42D	0.028 ± 0.12
D10R	-0.158 ± 0.058
Q78E	-0.004 ± 0.13
V62P	-0.378 ± 0.11
G36S	-0.026 ± 0.07
D73Q	0.004 ± 0.096
I75L	-0.155 ± 0.054
V63R	-0.445 ± 0.066
T51C	-0.064 ± 0.1
S15T	0.004 ± 0.067
D30R	-0.258 ± 0.05
S12D	0.019 ± 0.066
Q25F	-0.129 ± 0.096
D54C	-0.089 ± 0.11
L26R	-0.939 ± 0.088
I7N	-0.193 ± 0.3
D30E	0.108 ± 0.087
N60D	-0.077 ± 0.092
F27L	0.026 ± 0.052
D73M	-0.391 ± 0.11

Variant	abundance fitness
V3S	-0.773 ± 0.14
G72N	-0.043 ± 0.28
M21I	-0.124 ± 0.11
V3K	-0.639 ± 0.23
I57S	-0.861 ± 0.15
V13R	-0.113 ± 0.046
I2Y	-0.418 ± 0.22
L26P	-0.859 ± 0.18
Q78D	0.084 ± 0.087
P19D	-0.101 ± 0.16
I45C	0.008 ± 0.063
V43T	-0.068 ± 0.076
I2S	-0.196 ± 0.065
V43N	-0.176 ± 0.19
A42K	0.041 ± 0.13
V14P	-0.977 ± 0.19
D54F	-0.112 ± 0.099
K37R	0.028 ± 0.076
C80T	-0.038 ± 0.091
E41D	-0.125 ± 0.082
S48N	0.049 ± 0.14
S48A	0.065 ± 0.065
L1G	-0.662 ± 0.21
R58V	-0.521 ± 0.1

Variant	abundance fitness
P79K	0.113 ± 0.12
D22R	-0.015 ± 0.04
T31H	-0.048 ± 0.13
R68H	-0.009 ± 0.13
K35F	-0.247 ± 0.2
V3I	-0.037 ± 0.13
D54N	-0.072 ± 0.089
D30S	-0.175 ± 0.064
V63G	-0.253 ± 0.058
R61V	-0.005 ± 0.059
E5V	-0.068 ± 0.041
L34W	-0.777 ± 0.23
I7M	0.039 ± 0.066
I2P	-0.891 ± 0.27
G36W	-0.618 ± 0.15
K38H	-0.05 ± 0.18
I45Y	-0.029 ± 0.11
G36I	-0.545 ± 0.2
L16N	-0.766 ± 0.29
R64N	-0.458 ± 0.17
D54T	0.218 ± 0.095
T51Y	-0.277 ± 0.12
R61F	-0.158 ± 0.14
G72S	-0.278 ± 0.082

Variant	abundance fitness
E55S	0.01 ± 0.056
N65H	-0.038 ± 0.11
I2F	-0.103 ± 0.051
V46D	-0.804 ± 0.17
L67A	-0.601 ± 0.074
R61N	-0.091 ± 0.15
S76R	-0.046 ± 0.044
D73N	-0.102 ± 0.22
I7T	-0.099 ± 0.079
V3D	-0.529 ± 0.41
V32E	-1.05 ± 0.33
N66P	-0.952 ± 0.2
R39W	-0.08 ± 0.094
R61Y	-0.059 ± 0.21
P81H	-0.261 ± 0.1
V74E	0.051 ± 0.11
D54W	-0.289 ± 0.07
N60T	-0.019 ± 0.08
L24M	-0.249 ± 0.076
L34T	-0.558 ± 0.07
A6I	0.002 ± 0.12
V74C	-0.039 ± 0.08
S12R	-0.038 ± 0.04
D54A	-0.076 ± 0.058

Variant	abundance fitness
Q18H	0.036 ± 0.17
K35L	-0.058 ± 0.086
S15H	-0.039 ± 0.09
V14S	-0.801 ± 0.068
C80Y	-0.109 ± 0.059
S48V	0.004 ± 0.055
D54Q	-0.279 ± 0.1
G29N	-0.03 ± 0.11
C52E	-0.416 ± 0.085
E55C	0.002 ± 0.068
L71E	0.07 ± 0.069
P81A	-0.042 ± 0.044
D73S	-0.012 ± 0.07
S48D	-0.137 ± 0.1
I7H	-0.15 ± 0.13
R40G	0.107 ± 0.055
K20M	0.04 ± 0.074
N65S	0.025 ± 0.062
T31C	-0.262 ± 0.11
Q25I	-0.043 ± 0.081
I75A	-0.246 ± 0.088
T31R	0.053 ± 0.047
C80P	-0.048 ± 0.3
D30I	-0.68 ± 0.29

Variant	abundance fitness
D10W	-0.189 ± 0.071
S48Q	-0.106 ± 0.1
R28I	-0.061 ± 0.1
A6N	-0.004 ± 0.22
V3T	-0.432 ± 0.097
P79Y	-0.208 ± 0.12
V63E	-0.223 ± 0.14
R70I	-0.242 ± 0.19
D30M	-0.047 ± 0.1
N65W	-0.157 ± 0.068
D50M	0.025 ± 0.1
K20W	-0.391 ± 0.14
R68W	-0.169 ± 0.097
L34E	-1.01 ± 0.25
V69Y	-0.781 ± 0.35
R40D	-0.085 ± 0.099
N8T	0.046 ± 0.067
I45S	-0.028 ± 0.059
K20I	-0.008 ± 0.058
E5Y	0.048 ± 0.089
M21H	-1.21 ± 0.41
V62I	0.011 ± 0.13
D10H	0.098 ± 0.13
P19I	0.088 ± 0.12

Variant	abundance fitness
R70S	0.036 ± 0.062
S12G	0.029 ± 0.045
D10K	-0.007 ± 0.11
T51I	-0.19 ± 0.11
D22F	-0.1 ± 0.063
R70E	0.106 ± 0.092
G36E	-0.191 ± 0.15
L24D	-0.759 ± 0.079
D22E	-0.038 ± 0.059
Q25W	-0.256 ± 0.11
I45A	-0.006 ± 0.057
I77L	0.013 ± 0.057
L16W	-0.912 ± 0.14
L67W	-0.976 ± 0.17
V62L	0.005 ± 0.055
I77F	-0.259 ± 0.11
R70N	-0.101 ± 0.12
P79F	-0.012 ± 0.088
I75W	-1.04 ± 0.37
Q25C	0.006 ± 0.073
G72W	-0.363 ± 0.073
N65A	-0.026 ± 0.067
R64G	-0.638 ± 0.08
I75V	-0.039 ± 0.069

Variant	abundance fitness
S12I	-0.166 ± 0.11
T31E	0.041 ± 0.064
A42S	0.085 ± 0.069
D10I	-0.121 ± 0.044
M59W	-0.99 ± 0.14
L24T	-0.705 ± 0.088
N11F	-0.208 ± 0.18
D22P	-0.862 ± 0.18
L47Y	-0.087 ± 0.16
I77H	-0.842 ± 0.47
D54E	-0.062 ± 0.079
D50Y	-0.246 ± 0.11
A6V	-0.133 ± 0.037
D50T	-0.037 ± 0.087
R68Q	-0.119 ± 0.1
D10L	-0.105 ± 0.042
D10N	-0.228 ± 0.13
D50A	-0.023 ± 0.056
D4P	-1.11 ± 0.19
R39T	0.013 ± 0.1
D54M	0.006 ± 0.12
L26A	-0.36 ± 0.063
V46W	-0.74 ± 0.19
E9F	-0.057 ± 0.084

Variant	abundance fitness
E5I	-0.045 ± 0.048
R64K	-0.365 ± 0.11
L71M	-0.002 ± 0.12
G29V	-0.612 ± 0.098
V63K	-0.433 ± 0.11
E41S	-0.09 ± 0.057
V63N	-0.276 ± 0.17
C52H	-0.452 ± 0.26
D22S	-0.084 ± 0.05
L16G	-0.895 ± 0.063
I45L	-0.016 ± 0.059
Q78C	-0.105 ± 0.089
K56M	-0.112 ± 0.082
V13I	0.053 ± 0.11
D54R	-0.205 ± 0.038
Q18C	-0.074 ± 0.067
I7C	-0.021 ± 0.1
S17C	-0.381 ± 0.11
K56S	0.034 ± 0.061
L71I	0.045 ± 0.13
R61W	-0.119 ± 0.079
C52I	-0.091 ± 0.2
